The values that follow come from the DeepSol protein solubility set.

The series can be described thus: soluble on expression in E. coli; label from the status in PepcDB or PDB records.
For “MHKLIIKYNKQLKMLNLRDGKTYTISEDERADITLKSLGEVIHLEQNNQGTWQANHTSINKVLVRKGDLDDITLQLYTEADYASFAYPSIQDTMTIGPNAYDDMVIQSLMNAIIIKDFQSIQESQYVRIVHDKNTDVYINYELQEQLTNKAYIGDHIYVEGIWLEVQADGLNVLSQNTVASSLIRLTQEMPHAQADDYNTYHRSPRIIHREPTDDIKIERPPQPIQKNNTLEHHHHHH”, the “soluble on expression in E. coli” value is “soluble”.
In the case of “MEKYMSLLTRIEEMMQSTSYQEGDRLPSIRQLSARYQVSKSTVIRALQELEKRHLIYSVPKSGYYIVKKSGKSKSGQPGPIDFATSAPDPDVFPYLDFQHCINKAIDTYKNDLFIYGTPKGLPSLIRVLRKLLATQQVFADERHIFITSGVQQALSLLCAMPFPNGKEKIAIEQPGYHLMVEQLETLGIPAIGVKRTEEGLDIAKVERLFQTESIKFFYTMPRFHNPLGCSLSERDKQELVRLAEAYDVYLVEDDYLGDLEENKKADPLYAYDLSSHVIYLKSFSKMMFPGLRVGAAVLPEALTDTFYAYKKLNDIDCSMISQAALEIYLKSGMYGRHKEKIRDSYKERSLRLHQAIRTHRQLGSGRFTFSSGQAPCMHTHLVLPQDLPASRVIHRLEKQGVLLEAIDRHYLSDYPKENLLKINISNVKTEDIERGVKLLMSHL”, the “soluble on expression in E. coli” value is on record as “not soluble”.
In the case of “MGSDKIHHHHHHVQESREFILEIAQLNKTYSGNRVLNNINFDLKLGEVHALVGENGAGKSTLIKIIAGVEKPDPGAEILFGGCPAINLNPSKSVQMGISVIYQDISLFPNLSVAENICIGGQKGLFIKWKQVFETARSALIKLGAIDIDPHVPLGEISIGQRQMVALARALTHEARVIIMDEPTSSLSANEIKALYSAIQILKNENKSLIYISHKFEEVFEVADRISVLRDGEMIASKAAWEFDEQSLISMMVGREIRFLPMRNDGVAGKKLLEVRGLTKEPLFRNISFSLYENEILGITGLVGAGRSEMAQTLFGLEKADKGRIFMGEKELSIKSAVDAIKSGICYLPEDRRGQGIFLIQSMARNITTAKLESILNRCRLLSRPKEMAVSEYYMDRLNIKPRLPDISADKMSGGNQQKLLFSRWLNARPQILIADEPSSGIDVATKAEIHGLLRELAASGVGVILISSDLPETLAVCDRILVMRNGNIVDQTSSKESSQEELIRKGLMG” it was “not soluble”; in that of “QLQEKLYVPVKEYPDFNFVGRILGPRGLTAKQLEAETGCKIMVRGKGSMRDKKKEEQNRGKPNWEHLNEDLHVLITVEDAQNRAELKLKRAVEEVKKLLVPAAEGEDSLKKMKLMELAILNGTYRDANLKSPALHHHHHH”, “soluble”; in that of “MGSDKIHHHHHHMLLYIHGFNSSPFSDKAVITARYMAEYHPSLTFHQPQLPNTPKAAMALLQSYVEAAQQANEPLNYIGSSLGGYFASYLAERYGGRAVLVNPAVKPFELFDEFMGPQFNPYTQEHYQVLPEHKREVAEFNTPVIRNPERFLVLLQTGDEVLDYREALHKYHHCQLRIESGGDHSFVGYERYLQTVSQFLHLP”, “not soluble”.
Take “MFNYERPKHFIQSQNPCGSRLQPPGPETSSFSSQTKQSSIIIQPRQCTEQRFSASSTLSSHITMSSSAFPASPQQHAGSNPGQRVTTTYNQSPASFLSSILPSQPDYNSSKIPSAMDSNYQQSSAGQPINAKPSQTANAKPIPRTPDHEIQGSKEALIQDLERKLKCKDTLLHNGNQRLTYEEKMARRLLGPQNAAAVFQAQDDSGAQDSQQHNSEHARLQVPTSQVRSRSTSRGDVNDQDAIQEKFYPPRFIQVPENMSIDEGRFCRMDFKVSGLPAPDVSWYLNGRTVQSDDLHKMIVSEKGLHSLIFEVVRASDAGAYACVAKNRAGEATFTVQLDVLAKEHKRAPMFIYKPQSKKVLEGDSVKLECQISAIPPPKLFWKRNNEMVQFNTDRISLYQDNTGRVTLLIKDVNKKDAGWYTVSAVNEAGVTTCNTRLDVTARPNQTLPAPKQLRVRPTFSKYLALNGKGLNVKQAFNPEGEFQRLAAQSGLYESEEL”: the “soluble on expression in E. coli” value is given as “soluble”.
In the case of “MILIKNGRVMDPKSQRDQVADVLIDGKQIVKIASAIECQEAQVIDASGLIVAPGLVDIHVHFREPGQTHKEDIHTGALAAAAGGVTTVVMMANTNPVISDVETLQEVLASAAKEKIHIYTNASVTQAFNGKDVTDFKALLEAGAVSFSDDGIPLESSKVLKEAFDLANANQTFISLHEEDPQLNGVLGFNEGIAEEHFHFCGATGVAEYSMIARDVMIAYDRQAHVHIQHLSKAESVQVVAFAQQLGAKVTAEVSPQHFSTTEDLLLIAGTSAKMNPPLRTQRDRLAVIEGLKSGVITVIATDHAPHHKDEKTVDDMTKAPSGMTGLETSLSLGLTHLVEPGHLTLMSLLEKMTLNPALLYGFDAGYLAENGPADLVIFADKQERLITENFASKASNSPFIGNKLKGVVKYTIADGEVVYPN” it was “not soluble”; in that of “MSLARHEAIVEPAQSTHTSGAHTSGAQAQPGVRPTTAAGRWRDVEMMAYKQDDAAPFRDVTRQLLFSDPRLACEWRYFEVAAGGYSTLEKHDHVHGVMIHRGKGQCLVGHHVSDVAVGDLVFIPPQTWHQFRANAGDVLGFLCLVNAERDRPQLPGDGDLAALRADPAIADFLSSEGHHHHHH”, “soluble”.
In the case of “VAKRLDLTDVNIYYGSFHAVADVSLAILPRSVTAFIGPSGCGKTTVLRTLNRMHEVIPGARVEGAVLLDDQDIYAPGIDPVGVRRAIGMVFQRPNPFPAMSIRNNVVAGLKLQGVRNRKVLDDTAESSLRGANLWDEVKDRLDKPGGGLSGGQQQRLCIARAIAVQPDVLLMDEPCSSLDPISTMAIEDLISELKQQYTIVIVTHNMQQAARVSDQTAFFNLEAVGKPGRLVEIASTEKIFSNPNQKATEDYISGRFG” it was “not soluble”; in that of “MNASSAPQQQQQQQQPQQGQAPQQQQQGPPQHQYQQQRPFHGRVQNHMRGSGPFGNSNGYGRYTAPRGDQQHHDSTPLSSTNLYIRGLMPNTNDDLLREMCSKYGNIASTKAIMDKATNNCKGYGFVDFESPQAAAAAVDGLNTEGVQAQMAKLQQQEQDPTNLYIANLPLDFTEQMLETELNKFGMVISTRILRTPDNQSRGVGFARMDSKEKCEVIISALNGGRFDTMSKEGPALLIKQADTGRKSKHSMNNPEMLQRMQYPQVYQSYYGYHPAAVYQQHYDVNSLASQMGGMHVGGGNPQANGGGDMYGAHMYGQNAGGQGGQGVGQGGQGGNQQFYNPNNGRNKKYFQPMNPQ”, “not soluble”; in that of “MSAEFERLLAQFERFQSKIKKVDDQLANVERMQSEIAELEATASNADRSITIVAGPGGAIKDIQLTDKALSQQPQALSAALMSTIQEAVAEAARKQAAIVDDHMGGQLNVTDQVLETQAQLFGTSPQELRERMEQERPIRQTPLRPEEEYHEDYSHQDFLGSDQEQQSPPPPPAPSGGSAGDEFLQNLFNNDDHR”, “not soluble”.
With “MAEPVQEELSVLAAIFCRPHEWEVLSRSETDGTVFRIHTKAEGFMDADIPLELVFHLPVNYPSCLPGISINSEQLTRAQCVTVKEKLLEQAESLLSEPMVHELVLWIQQNLRHILSQPETG” the entry was “soluble”; with “MGSDKIHHHHHHMTHPALIDELQALADPGKVLTDAGSLETYGKDWTRQFTPAPLAIVFPKTTEQVQAIVRWANERLVALVPSGGRTGLSAAAVAANGEVVVSFDYMNQVLELNLTDRTAVCQPGVITRQLQALAEDNGLYYPVDFASSGSSQIGGNIGTNAGGIKVIRYGMTRNWVAGLKVVTGKGDLLELNKDLIKNATGYDLRQLFIGAEGTLGFVVEATMRLDRAPKNLTAMVLGTTDFNSIMPVLHAFHGKLDLTAFEFFSDKSFARVMARGDVPSPFDTPCPFYVLLEFEATTEDLADQALATFEHCVEQGWVLDGVMSQSEQQLRNLWKLREYISETISHFTPYKNDISVSVSKVPEFLAEIDAIVAEYYPDFEVLWYGHIGDGNLHLNILKPENLDKDEFFVKCARVNKWVFETVEKYNGSISAEHGVGMTKRDYLTYSRSPVEIEYMKALKAVFDPNGIMNPGKIFAV”, “not soluble”.
For “MELAKKTGATVIGSAEMADYLSSYHGVENVHGMNIGGKANFDFGSVKFVQAFHSSSFTHENGIPVYLGMPMGIVFEVEGKTIYHTGDTGLFSDMSLIAKRHPVDVCFVPIGDNFTMGIDDASYAINEFIKPKISVPIHYDTFPLIEQDPQQFKDAVNVGDVQILKPGESVQFLEHHHHHH”, the “soluble on expression in E. coli” value was “not soluble”.
Regarding “MVVMSKVLLNIGCADVDKPGYINVDARKTKVTHLVSNAWDLDCFEENSVHEIYSRHMLEHLNPEYAKLALQKWFYILEPEGKLVVIVPDIEFHARQLLGVSRSSFGDQMEHAFAGFWGWREKERGGSDFDAHQWGYTVATLENEIGAVGFERIERVVEGVDSEPWHLQMTARKPMTSLCCPMDFRGPFPLEHHHHHH”, the “soluble on expression in E. coli” value is listed as “soluble”.
For the sequence “MNRIYLYLLIVLILAGCSSPGGRYDMSDDQAPDTPLSVEHIEDAHPQYEPYSFGGNKDYNLRGKSYRIIKNPKGFTESGKASWYGKKFHGHLTSNGEIYDMYSMTAAHKTLPIPSYVKVTNTDNGKSTVVRVNDRGPFHDGRIIDLSYAAAYKIGVVQAGTANVRIEVITVDKPTKPRPKSKNNALEYVIQVVSSQHIERVRTLAQNLGQNLSAPSFVESTNNTHRLFLGPFTDDDLTQTLLEQVKSAGYDSAFIKTINKRAK”, the “soluble on expression in E. coli” value is reported as “not soluble”.
On to “MEKKRVVITGLGAVTPVGTDVETAWENIKKGVSGIGRLTRIDPELFPAKVAAEINDFEVEKYIDKKEARRMDRFTQYAVAAAKMAVADAKLEITEENGPRIGVWIGSGIGGMETYEEQFKIFTEKGPRRVSPFFVPMMIPDMAAGQVSIATGAKGINTCSVTACASGANSIGDAFKAIQRGDADAMITGGAEAPLTSMAFAGFSSAKALTFNEDPATACRPFDKNRSGFVMGEGSGILILEELEHALARGAHIYAEIAGYGATGDAFHITMPAPGGEGGVRAMRQALADAGLQPEDIDYINAHGTSTDANEKYETMAIKETFGEHAYKVAISSTKSMTGHLLGAAGAVEAIFSIKSITDGVIPPTINYETPDPECDLDYVPNNARHQEVNAVLSNSLGFGGHNAVLVFKSYK”, for which the “soluble on expression in E. coli” value was “not soluble”.
As to “MQDRIFAFTPKGSLFQLPKGATPIDFAFAVHTNLGAQAVGAKINGRHVPLRTPLGNGDVVEIIKSRTSEPQLEHHHHHH”, the “soluble on expression in E. coli” value was “not soluble”.
On to “MGSSHHHHHHGKTIFVIVPTNEEQVAFLEALAKQDELNFDWQNPPTEPGQPVVILIPSDMVEWFLEMLKAKGIPFTVYVEEGGSENLYFQGGGGGGQSPRDAHTHTHTHTDAHKHVLVHICVCVCACVCVSYSLHSTLALSLPAFSPHCHSLRLGFHVFRKQRARTKTAAVAEQRGLRWTHTTARTAKSGWPPRGHTDTHTHTHTHTHITWEYASSGMTLVFEARRLPFGSISEVYAASIQPIVALHALDKLPLWDRCMLVAVLPVVQQRHSASAAAAPPSTVVRPSLTRNDSDNADAAAASLSSATVRAANHEERVNASPELAGAPSLEDVALALTIVRALDELEVVYDSSISTRAELEQQQQQQPSLPAASLAEAPRRAFKQPKKTSEELLMEQLLQERFTDTAPYLLESSDEGGENSADAAVDVAMCFTVKGESLGIGSATIFGGHGYHP”, for which the “soluble on expression in E. coli” value is given as “not soluble”.
On to “MAHHHHHHMLKHPQAALLFVHNSSDLFQNDTLGVLRNKTKIQNKKKISRFKIQSSEERHTDGGLHYDLTPENVEKVLNLIRPKLQIDNGDVELVDIKNNDLYIKLLGNCVTCSSNSVTVSQVIKKTLKMYIRNEKNEEPNVIITNFDEINEENIHSCLSDLKPYFDFLSKWHTGGGTPLGVMLGGRGSYSKEKRPFKGGDPSHSISSTPPPLKRAKRSTV”, for which the “soluble on expression in E. coli” value is listed as “not soluble”.
